The text below walks through data of PMC3996851, “Characterization of 3-phosphoglycerate kinase from Corynebacterium glutamicum and its impact on amino acid production” (BMC Microbiology, 2014).

In general, Ki refers to a measure of affinity in units of concentration, obtained from inhibition or displacement. Read a low Ki as a stronger hold on the target. By stoichiometry N is commonly meant a count of units in the complex or per binding partner. As usually defined, the Km is the substrate concentration at which the rate is half of its maximum. The term kcat denotes the number of substrate molecules converted per active site and unit of time at saturation. As a reminder, the kcat/Km is the turnover number divided by the Michaelis constant.

Series [1] deals with T1, PGK^His (C. glutamicum 3-phosphoglycerate kinase) (Corynebacterium glutamicum, UniProt Q01655).
T1 construct: full length, N-terminal tenfold His tag (pET16b); expressed in E. coli BL21(DE3), Ni-NTA purified; 47 kDa monomer, 104 kDa homodimer
As to the kind of experiment: coupled GAPDH/NADH assay, absorbance […] nm. It is filed as biochemical.

Series [2] deals with the molecule itself. As to the kind of experiment: SEC; gel filtration on a Bio-Prep SE-1000/17 column calibrated with BioRad standards; 100 mM TEA-Cl pH 7.4 with the optimal conditions for activity; two runs, 2 mg/ml PGK mixed with standards and 4 mg/ml PGK; single peak of about 104 kDa, fractions checked by enzyme activity (data not shown). For orientation: SEC sorts molecules by how far they enter the pores of the column.

Substrate in series [3]: Nc1ncnc2c1ncn2[C@@H]1O[C@H](COP(=O)(O)OP(=O)(O)OP(=O)(O)O)[C@@H](O)[C@H]1O
As to the kind of experiment: purified protein. The format is biochemical, Corynebacterium glutamicum. As to conditions: gluconeogenic direction, co-substrate 3-PG, 2 mM Mg2+, 100 mM TEA-Cl pH 7.4, 30°C.

Substrate in series [4]: O=C(O)[C@H](O)COP(=O)(O)O
As to the kind of experiment: purified protein. It is filed as biochemical, Corynebacterium glutamicum. As to conditions: gluconeogenic direction, co-substrate ATP, 2 mM Mg2+, 100 mM TEA-Cl pH 7.4, 30°C.

In series [1], `Nc1ncnc2c1ncn2[C@@H]1O[C@H](COP(=O)(O)OP(=O)(O)O)[C@@H](O)[C@H]1O` [ADP] registered an inhibition constant (Ki) of 100 µM.

B1: 3-phosphoglycerate kinase (PGK) from Corynebacterium glutamicum, N-terminally His-tagged (enzyme, Corynebacterium glutamicum ATCC 13032, UniProt Q01655 1-405, looked up)
chain: MAVKTLKDLLDEGVDGRHVIVRSDFNVPLNDDREITDKGRIIASLPTLKALSEGGAKVIVMAHLGRPKGEVNEKYSLAPVAEALSDELGQYVALAADVVGEDAHERANGLTEGDILLLENVRFDPRETSKDEAERTAFAQELAALAADNGAFVSDGFGVVHRAQTSVYDIAKLLPHYAGGLVETEISVLEKIAESPEAPYVVVLGGSKVSDKIGVIEALAAKADKIIVGGGMCYTFLAAQGHNVQQSLLQEEMKATCTDLLARFGDKIVLPVDLVAASEFNKDAEKQIVDLDSIPEGWMSLDIGPESVKNFGEVLSTAKTIFWNGPMGVFEFAAFSEGTRGIAQAIIDATAGNDAFSVVGGGDSAASVRVLGLNEDGFSHISTGGGASLEYLEGKELPGVAILAQ
notes: 3-phosphoglycerate kinase (EC 2.7.2.3) of Corynebacterium glutamicum ATCC 13032, encoded by cg1790/pgk; amplified from genomic DNA with primers from start to stop; monomer 47 kDa by SDS-PAGE; The methods say an N-terminal tenfold His tag (pET16b); also called PGK^His; PGKHis; source: E. coli BL21 (DE3) (pET16b-pgk), purified (Ni-NTA, desalted on Sephadex G25); not shown: His10, N-terminal, kept
Take B1: in series [2], the “stoichiometry N” value was determined as 2. Further, in the series “purified protein [3]”, the Km is 110 µM, the Vmax is listed as 150 U/mg, the kcat is 130 s⁻¹ and the specificity constant (kcat/Km) was determined as 592000 M⁻¹ s⁻¹. Further, in “purified protein [4]”, the Michaelis-Menten constant (Km) amounted to 260 µM, the Vmax worked out at 220 U/mg, the kcat was 191 s⁻¹ and the specificity constant (kcat/Km) turned out to be 733000 M⁻¹ s⁻¹.
